Source: the supplement of paper PMC12042874
± gives the uncertainty stated by the source.

Experiment: amyloid nucleation score (Sup35N fusion, yeast selection) (log enrichment); library NNK2; higher = more nucleation; inactive = no reads after selection
Method in brief: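 Sup35N was fused to peptides of 20 random codons and expressed in psi-negative yeast, which were induced with 100 μM copper sulfate for 24 hours and then grown on medium lacking adenine and uracil for 7 days at 30°C. Plasmid inserts from input and output were sequenced on Illumina. The nucleation score is the DiMSum log enrichment of output over input reads, centred on the mode score of non-aggregating sequences. Sequences with under 100 input reads were left out, and random libraries had three technical output replicates.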

| Substance | amyloid nucleation score |
| --- | --- |
| RLRSILLSWCCRFGGSQLRA | 0.581 ± 0.39 |
| RLSAHPVAAVLWG | 1.49 ± 0.36 |
| RLSENFLRWSDVTIQSRLFG | 2.49 ± 0.15 |
| RLSEVTKDYVGTCNLDRLS | -0.157 ± 0.29 |
| RLSLQTVRLPLLYIWDEDSW | 3.43 ± 0.15 |
| RLSNELKRMVYSDQVQGYSR | -0.357 ± 0.48 |
| RLSPPRNWLVRRRRIFNGLL | -0.757 ± 0.76 |
| RLTFSSIVTGGLQFKTLL | 2.75 ± 0.1 |
| RLTPYTFTWSVFEMFNLRMP | -1.09 ± 0.49 |
| RLTYNKYLTWNCYVFLSHAL | -0.464 ± 1.1 |
| RLVIGT | 2.41 ± 0.11 |
| RLVYGLFAYKF | 5.29 ± 0.037 |
| RLWNSGCLS | -0.916 ± 0.76 |
| RLWTCLEVLKFSGGLIASMY | -1.05 ± 0.44 |
| RMCLSVVNWSSRSHRSFHQP | 3.81 ± 0.051 |
| RMGFWSLGSSSYNWYKTCVL | 0.043 ± 0.74 |
| RMPVLSCDCRFFYVLSRVNE | -0.566 ± 1 |
| RMSIICFALKYILYRWMFRL | 0.988 ± 0.74 |
| RMSVRLKVVHLDAIIVLVLG | 0.877 ± 0.8 |
| RMWCLGLDPLYTENKGSSDA | -0.427 ± 1.1 |
| RMWCQVKS | -0.236 ± 0.53 |
| RMYLRSIVKSLMAWQRLGRI | -0.545 ± 0.55 |

| Substance | amyloid nucleation score |
| --- | --- |
| RNAQDKESKIGTVSDSNHWV | 0.107 ± 0.36 |
| RNGLILCLGEVVMSSMESVT | -0.646 ± 0.61 |
| RNGVNRLELGFLIETLHNAC | 4.622 ± 0.038 |
| RNLCGFGCVTFRSVLL | 0.279 ± 0.65 |
| RNMVVGVGRRP | -0.15 ± 0.45 |
| RNRSGVMW | 0.276 ± 1 |
| RNSDGPLCSDGVVHFIRMLV | 0.001 ± 0.65 |
| RNSPSRKNL | -0.415 ± 0.36 |
| RNTNSANVKSCSMVRNRVWC | 0.604 ± 0.66 |
| RNYHIQYIAVRVLIPASA | 5 ± 0.068 |
| RNYRLRMDGDCGLFFCCGD | 9.348 ± 0.051 |
| RNYVIFTSEAKVAADIPLYL | 2.45 ± 0.21 |
| RPDNSDV | -1.61 ± 0.54 |
| RPFDHANRCRSAVYT | 1.63 ± 0.47 |
| RPKYCQVVAGLVNYGVRLVV | -0.262 ± 0.49 |
| RPMLVVSGGTSVLWDWAASD | 0.422 ± 0.64 |
| RPMWLSGAEKKWLSCWCNCM | 6.013 ± 0.046 |
| RPQKSSARRIVPFMMFWLGN | 0.426 ± 0.36 |
| RPRAWI | 0.428 ± 0.44 |
| RPVDPWLCRKWLVV | inactive |
| RPWHDLLNLHLYGRFMYTIG | 0.415 ± 0.37 |
| RPWLNRAFDVISYYAIMACR | 0.091 ± 0.3 |

| Substance | amyloid nucleation score |
| --- | --- |
| RPWVHTGW | 0.277 ± 0.57 |
| RQDPDSLTLHRLSSGGIR | 0.366 ± 0.64 |
| RQFPGFSSYPTLEINFYICV | 6.76 ± 0.069 |
| RQGFSVSSNRLGVFQSQEPG | -1.05 ± 0.78 |
| RRAILWPNGAN | 0.097 ± 0.37 |
| RRFMYIFYLDYFFKPLLRLN | -0.369 ± 1.1 |
| RRFPRHLASGRMPV | 1.41 ± 0.32 |
| RRFTINFKDK | -1.2 ± 0.78 |
| RRICTGFIRLVGYVYYAAHL | -0.29 ± 0.24 |
| RRIIQCSDEFVLYQCNMLRC | 0.759 ± 0.41 |
| RRISLLFTYYVRQSLSCLIV | 4.94 ± 0.086 |
| RRLFYRRRQHNILLAYWVWY | 0.524 ± 0.81 |
| RRLSNRRWLIFCQWSFHYGV | 0.242 ± 0.61 |
| RRQRWKRLTNF | inactive |
| RRSSD | 1.2 ± 0.3 |
| RRTICCCSIVCGRGNGSLDL | 6.257 ± 0.056 |
| RRVMRLWMALPCNDMIGCIQ | -0.476 ± 0.37 |
| RRVVWSWNCLLSDMPRSHVL | 1.51 ± 0.13 |
| RRVYCNIIVSGVCVSGE | 1.42 ± 0.12 |
| RRWDHRIHGILSISDIIFLR | inactive |
| RRYYNAQHVVVYELEVESLS | 0.453 ± 0.66 |
| RSCMASEYGT | -0.971 ± 0.64 |

| Substance | amyloid nucleation score |
| --- | --- |
| RSCSWLLIYRIVILVG | inactive |
| RSDCCRDQYT | -0.311 ± 1.1 |
| RSDVTLDNIQMWA | -1.38 ± 0.64 |
| RSFGYIMLWVMIFNRIKLIF | inactive |
| RSFHVEYILM | 3.23 ± 0.068 |
| RSHGSQGMKSR | 1.12 ± 0.34 |
| RSHLSTLEMSTSIGKGNPNY | 0.685 ± 0.56 |
| RSIISFPLFLFSIQLIPPWA | -0.792 ± 0.6 |
| RSLDEPSFFIPMPMYWVLGV | 0.271 ± 0.65 |
| RSLDVLTTVVMRAFNPTRLR | 0.953 ± 0.36 |
| RSLVLYSGRKVLS | -0.516 ± 0.27 |
| RSMFDWYKCILHDLISLQSR | 0.769 ± 0.47 |
| RSNDCDDLMDHVLWGYETYR | 1.08 ± 0.66 |
| RSNNTIFGKLFSGAILLCWV | -1.2 ± 1 |
| RSRRRHRLDVGSWRWCCGES | 4.08 ± 0.052 |
| RSSSSTMDMM | 0.85 ± 0.74 |
| RSTERCNYTCVNWVVL | 7.748 ± 0.048 |
| RSWIFVSLIDCMEWILMNGS | -0.451 ± 1 |
| RTDMALALQ | 0.973 ± 0.34 |
| RTFAKVLKSSYQRNLPSTDV | 0.267 ± 0.24 |
| RTGGNILQYFYIVRAHSGWC | 1.35 ± 0.16 |
